One substance from US20200063132A1 can be followed below.

This experiment has as its target human Mannose 6-Phosphate Receptor (M6PR, also known as IGF2R), endogenous on HUVEC and hCMEC/D3 cells (human) (UniProt P11717). The experiment can be described thus: cell-based or functional assay.

Chain of human Mannose 6-Phosphate Receptor (M6PR, also known as IGF2R), endogenous on HUVEC and hCMEC/D3 cells (human) (P11717 41-2491): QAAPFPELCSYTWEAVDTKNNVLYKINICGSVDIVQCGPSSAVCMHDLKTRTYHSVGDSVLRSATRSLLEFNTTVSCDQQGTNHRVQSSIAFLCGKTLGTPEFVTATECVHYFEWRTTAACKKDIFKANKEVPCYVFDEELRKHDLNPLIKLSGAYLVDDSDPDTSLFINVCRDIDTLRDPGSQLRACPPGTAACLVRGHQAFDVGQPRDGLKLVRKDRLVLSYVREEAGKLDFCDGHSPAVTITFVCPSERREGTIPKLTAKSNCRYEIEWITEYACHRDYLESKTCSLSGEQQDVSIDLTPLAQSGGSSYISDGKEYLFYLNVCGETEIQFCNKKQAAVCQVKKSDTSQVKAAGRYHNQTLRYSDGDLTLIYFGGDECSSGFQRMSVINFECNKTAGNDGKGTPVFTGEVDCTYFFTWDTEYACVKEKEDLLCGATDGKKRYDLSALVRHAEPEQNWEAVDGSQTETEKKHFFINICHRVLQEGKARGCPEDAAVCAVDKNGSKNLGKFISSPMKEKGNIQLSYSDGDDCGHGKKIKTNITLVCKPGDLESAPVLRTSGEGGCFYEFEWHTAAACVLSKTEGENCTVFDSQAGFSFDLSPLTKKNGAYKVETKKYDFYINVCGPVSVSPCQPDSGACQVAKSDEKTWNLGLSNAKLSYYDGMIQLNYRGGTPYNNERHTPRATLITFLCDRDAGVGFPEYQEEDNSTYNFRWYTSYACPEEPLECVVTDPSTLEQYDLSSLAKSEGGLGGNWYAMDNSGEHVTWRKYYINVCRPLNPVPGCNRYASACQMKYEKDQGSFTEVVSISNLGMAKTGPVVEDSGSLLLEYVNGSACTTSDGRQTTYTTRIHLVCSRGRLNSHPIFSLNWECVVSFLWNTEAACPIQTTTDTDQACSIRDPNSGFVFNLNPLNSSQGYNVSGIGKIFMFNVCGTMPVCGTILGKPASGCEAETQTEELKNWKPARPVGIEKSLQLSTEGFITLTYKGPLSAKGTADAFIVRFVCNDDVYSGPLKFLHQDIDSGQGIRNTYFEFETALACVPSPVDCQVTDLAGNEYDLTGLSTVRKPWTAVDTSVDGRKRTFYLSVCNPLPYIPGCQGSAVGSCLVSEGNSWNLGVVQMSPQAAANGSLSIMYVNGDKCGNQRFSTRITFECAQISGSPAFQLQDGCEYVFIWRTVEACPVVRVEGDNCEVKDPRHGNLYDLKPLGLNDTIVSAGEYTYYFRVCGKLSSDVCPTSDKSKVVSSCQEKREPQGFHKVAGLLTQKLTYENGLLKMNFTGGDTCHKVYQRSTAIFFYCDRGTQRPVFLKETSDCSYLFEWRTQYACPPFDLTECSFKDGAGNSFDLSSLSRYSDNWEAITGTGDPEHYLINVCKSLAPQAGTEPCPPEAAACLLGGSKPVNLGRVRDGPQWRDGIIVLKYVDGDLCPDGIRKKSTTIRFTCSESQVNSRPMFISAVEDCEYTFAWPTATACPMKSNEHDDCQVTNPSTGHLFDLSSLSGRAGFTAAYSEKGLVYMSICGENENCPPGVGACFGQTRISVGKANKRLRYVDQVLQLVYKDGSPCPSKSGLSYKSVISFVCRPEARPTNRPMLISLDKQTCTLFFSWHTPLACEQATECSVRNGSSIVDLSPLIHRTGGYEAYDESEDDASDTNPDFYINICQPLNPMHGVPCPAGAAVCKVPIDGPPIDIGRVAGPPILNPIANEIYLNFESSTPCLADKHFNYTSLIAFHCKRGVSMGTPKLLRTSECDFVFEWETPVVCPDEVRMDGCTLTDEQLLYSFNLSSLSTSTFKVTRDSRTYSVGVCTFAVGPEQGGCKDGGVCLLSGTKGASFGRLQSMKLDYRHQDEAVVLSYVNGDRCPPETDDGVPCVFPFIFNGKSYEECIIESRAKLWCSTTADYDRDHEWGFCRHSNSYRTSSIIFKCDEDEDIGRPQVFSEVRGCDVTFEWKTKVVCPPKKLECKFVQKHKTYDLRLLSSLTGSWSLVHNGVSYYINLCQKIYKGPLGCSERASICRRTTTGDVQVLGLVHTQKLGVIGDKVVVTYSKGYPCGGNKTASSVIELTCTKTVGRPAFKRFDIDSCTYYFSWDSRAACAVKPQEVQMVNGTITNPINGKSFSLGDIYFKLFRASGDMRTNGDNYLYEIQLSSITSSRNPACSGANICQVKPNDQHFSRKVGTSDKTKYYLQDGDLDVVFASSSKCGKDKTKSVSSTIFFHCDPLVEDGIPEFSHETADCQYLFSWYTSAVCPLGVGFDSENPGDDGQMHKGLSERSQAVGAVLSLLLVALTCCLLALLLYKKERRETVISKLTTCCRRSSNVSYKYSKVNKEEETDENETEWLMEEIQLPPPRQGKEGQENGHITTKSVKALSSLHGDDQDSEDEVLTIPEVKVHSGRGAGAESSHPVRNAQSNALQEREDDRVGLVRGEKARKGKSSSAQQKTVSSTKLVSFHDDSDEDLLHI

In turn, “IDUA-myc fusion protein (human α-L-iduronidase with myc tag, from conditioned medium of HEK 293-based cells stably overexpressing human IDUA cDNA) (from UniProt P35475 28-653) (enzyme)” showed an IC50 of the M6P inhibitor (mannose 6-phosphate, a small molecule) on uptake of IDUA-myc by HUVEC, 1 h, intracellular IDUA activity of 348 µM and an IC50 of the M6P inhibitor (mannose 6-phosphate, a small molecule) on uptake of IDUA-myc by hCMEC/D3 cells, 1 h, intracellular IDUA activity of 57.2 µM.
